Data on 1 substance can be found in publication PMC4546514.

“And” between values parts separate entries of the source, which are not always exact repeats. Equal entries are not always repeated. Where two headings read alike, the source gives them in different places.

Test [1] addresses purified recombinant Ded1p (S. cerevisiae) (UniProt P06634). The experiment in a line: cross-linking.
Test [2] shares this target. The experiment in a line: cross-linking. This is another data set of the same source.

On to “purified recombinant Ded1p (from UniProt P06634 1-604) (natural protein; other documents disagree on this pair)”, for which the stoichiometry N (usually the number of molecules, sites or subunits per partner or assembly) in test [1] was under 5; in test [2], 2 and 3.
